Results reported in article PMC6220978, “Induced conformational changes activate the peptidoglycan synthase PBP1B” (Molecular Microbiology, 2018).
Residue numbers refer to the chain shown, from its start.

T1: PBP1B K355A (E. coli, UniProt P02919 46-844, K355A)
T1 sequence (looked up): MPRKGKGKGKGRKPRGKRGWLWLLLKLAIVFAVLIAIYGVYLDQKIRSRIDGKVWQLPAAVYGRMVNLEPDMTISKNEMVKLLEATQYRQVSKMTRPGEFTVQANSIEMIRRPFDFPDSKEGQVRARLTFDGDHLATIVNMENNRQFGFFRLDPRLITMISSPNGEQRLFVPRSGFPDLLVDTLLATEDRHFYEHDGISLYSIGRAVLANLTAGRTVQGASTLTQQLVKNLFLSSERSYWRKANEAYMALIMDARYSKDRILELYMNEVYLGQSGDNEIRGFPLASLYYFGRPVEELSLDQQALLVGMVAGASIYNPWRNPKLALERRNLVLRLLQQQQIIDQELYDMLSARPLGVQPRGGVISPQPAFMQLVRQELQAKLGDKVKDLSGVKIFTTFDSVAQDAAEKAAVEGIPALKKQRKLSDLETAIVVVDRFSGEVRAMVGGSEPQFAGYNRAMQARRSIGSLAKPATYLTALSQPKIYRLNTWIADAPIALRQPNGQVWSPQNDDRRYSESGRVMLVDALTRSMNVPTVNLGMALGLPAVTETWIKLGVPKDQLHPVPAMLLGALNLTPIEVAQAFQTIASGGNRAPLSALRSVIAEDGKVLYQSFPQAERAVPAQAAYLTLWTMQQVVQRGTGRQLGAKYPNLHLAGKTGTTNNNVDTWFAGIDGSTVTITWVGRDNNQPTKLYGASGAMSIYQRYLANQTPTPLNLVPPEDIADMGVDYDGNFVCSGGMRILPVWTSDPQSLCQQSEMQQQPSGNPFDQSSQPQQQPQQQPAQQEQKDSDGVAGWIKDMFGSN

T2: PBP1B (wild type, PBP1B^46-844) (E. coli, UniProt P02919 46-844)
T2 sequence (looked up): T1 sequence (looked up) with A310K

T3: PBP1B I202F (E. coli, UniProt P02919 46-844, I202F)
T3 construct: PBP1B, E. coli, residues 46-844, made by mutagenesis of pDML924; Substitution first found in the suppressor screen of Markovski et al. 2016 (LpoB bypass); source: E. coli BL21(DE3), purified (membrane extract, HisTrap, thrombin, HiTrap SP ion exchange)
T3 sequence (looked up): T1 sequence (looked up) with I157F, A310K

B1: LpoB (natural protein, E. coli)
chain: VGQREPAPVEEVKPAPEQPAEPQQPVPTVPSVPTIPQQPGPIEHEDQTAPPAPHIRHYDWNGAMQPMVSKMLGADGVTAGSVLLVDSVNNRTNGSLNAAEATETLRNALANNGKFTLVSAQQLSMAKQQLGLSPQDSLGTRSKAIGIARNVGAHYVLYSSASGNVNAPTLQMQLMLVQTGEIIWSGKGAVSQQ
notes: LpoB, E. coli; also called lipoprotein LpoB; source: E. coli BL21(DE3), purified (HisTrap, Superdex 200), as in Egan et al. 2014
B2: CpoB (full length) (natural protein, E. coli, UniProt P45955 27-263, looked up)
chain: QAPISSVGSGSVEDRVTQLERISNAHSQLLTQLQQQLSDNQSDIDSLRGQIQENQYQLNQVVERQKQILLQIDSLSSGGAAAQSTSGDQSGAAASTTPTADAGTANAGAPVKSGNANTDYNAAIALVQDKSRQDDAMVAFQNFIKNYPDSTYLPNANYWLGQLNYNKGKKDDAAYYFASVVKNYPKSPKAADAMFKVGVIMQDKGDTAKAKAVYQQVISKYPGTDGAKQAQKRLNAM
notes: CpoB, E. coli; The coiled-coil construct begins at residue 27, so the purified 'full length' protein may lack the signal peptide (surmise); source: E. coli BL21(DE3), purified (HisTrap, Superdex 200), as in Gray et al. 2015

Experiments:
[1] = molecular target: T1, PBP1B K355A; assay: cell-based or functional assay
[2] = molecular target: T2, PBP1B (wild type, PBP1B^46-844); assay: cell-based or functional assay
[3] = molecular target: T3, PBP1B I202F; assay: SPR; PBP1B versions immobilised to the chip surface; CpoB versions injected from either 3.9 nM to 2 μM or from 78 nM to 40 μM; apparent KD by non-linear regression, at least three independent experiments; conditions: both partners purified

| Binder | fold activation of the GTase rate of PBP1B K355A by LpoB [1] | GTase rate of WT PBP1B with LpoB relative to the basal rate of WT PBP1B (continuous fluorescence assay, dansylated lipid II; 0.5 μM PBP1B, 2 μM LpoB) [2] | Kd [3] |
| --- | --- | --- | --- |
| B1 | ~37 fold | 10.2 fold | – |
| B2 | – | – | > 2 µM |
